Experimental data reported in patent US20260167731A1 (DOMAIN THERAPEUTICS, published 2026).

Molecular target: human CCR8 (human, UniProt P51685 1-355)
Assay: cell-based or functional assay

B1: chimeric anti-CCR8 mAb 2-17 (antibody, human IgG1, kappa)
heavy: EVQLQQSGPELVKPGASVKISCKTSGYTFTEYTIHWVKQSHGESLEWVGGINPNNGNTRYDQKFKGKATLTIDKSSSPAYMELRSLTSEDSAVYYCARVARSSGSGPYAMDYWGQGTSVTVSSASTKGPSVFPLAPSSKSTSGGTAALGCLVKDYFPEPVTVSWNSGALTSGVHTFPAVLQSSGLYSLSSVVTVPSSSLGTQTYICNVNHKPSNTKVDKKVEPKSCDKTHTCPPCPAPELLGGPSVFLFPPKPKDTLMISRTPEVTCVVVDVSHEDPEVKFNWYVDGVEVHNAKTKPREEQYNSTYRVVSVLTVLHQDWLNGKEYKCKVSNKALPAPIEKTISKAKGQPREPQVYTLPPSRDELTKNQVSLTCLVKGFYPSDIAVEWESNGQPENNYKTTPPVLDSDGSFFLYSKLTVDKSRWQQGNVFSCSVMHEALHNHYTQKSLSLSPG
light: DVVMTQTPLSLPVSLGDQASISCRCTQSLLHTNGDTYLHWYLQKPGQSPKLLIYKVSNRFSGVPDRFSGSGSGTDFTLKISRVEAEDLGVYFCSQSTHVPYTFGGGTKLEIKRTVAAPSVFIFPPSDEQLKSGTASVVCLLNNFYPREAKVQWKVDNALQSGNSQESVTEQDSKDSTYSLSSTLTLSKADYEKHKVYACEVTHQGLSSPVTKSFNRGEC
- ADCC % Max lysis, HUT78 targets, NK cells Donor 3: 14%
- ADCC % Max lysis, HUT78 targets, NK cells Donor 4: 15%
- ADCC EC50, HUT78 targets, NK cells Donor 3: 0.793 nM
- ADCC EC50, HUT78 targets, NK cells Donor 4: 1.52 nM

B2: hypofucosylated (low fucosylated) chimeric anti-CCR8 mAb 2-19 (antibody, human IgG1, kappa)
heavy: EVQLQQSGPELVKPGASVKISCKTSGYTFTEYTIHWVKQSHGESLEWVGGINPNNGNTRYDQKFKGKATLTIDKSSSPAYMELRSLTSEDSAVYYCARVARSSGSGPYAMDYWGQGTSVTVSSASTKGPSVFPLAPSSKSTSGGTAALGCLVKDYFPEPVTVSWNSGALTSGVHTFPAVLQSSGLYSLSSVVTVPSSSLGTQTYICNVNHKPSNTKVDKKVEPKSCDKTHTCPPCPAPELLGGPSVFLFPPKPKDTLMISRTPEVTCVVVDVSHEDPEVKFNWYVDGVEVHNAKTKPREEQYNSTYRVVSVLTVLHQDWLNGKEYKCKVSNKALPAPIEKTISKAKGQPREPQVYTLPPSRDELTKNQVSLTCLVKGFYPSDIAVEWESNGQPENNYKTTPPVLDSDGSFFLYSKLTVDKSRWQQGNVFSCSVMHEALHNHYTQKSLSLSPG
light: DVVMTQTPLSLPVSLGDQASISCRCTQSLLHTNGDTYLHWYLQKPGQSPKLLIYKVSNRFSGVPDRFSGSGSGTDFTLKISRVEAEDLGVYFCSQSTHVPYTFGGGTKLEIKRTVAAPSVFIFPPSDEQLKSGTASVVCLLNNFYPREAKVQWKVDNALQSGNSQESVTEQDSKDSTYSLSSTLTLSKADYEKHKVYACEVTHQGLSSPVTKSFNRGEC
modifications: hypofucosylated Fc glycan
- ADCC % Max lysis, HUT78 targets, NK cells Donor 3: 29%
- ADCC % Max lysis, HUT78 targets, NK cells Donor 4: 29%
- ADCC EC50, HUT78 targets, NK cells Donor 3: 0.195 nM
- ADCC EC50, HUT78 targets, NK cells Donor 4: 0.282 nM
